Where “and” joins values, the source holds several entries; their conditions need not be identical. Identical values can stand only once.
How the values were obtained:
[1] = target: T1, MASP1 (UniProt P48740 20-699, limits assumed); experiment: cell-based or functional assay
T1 sequence (looked up): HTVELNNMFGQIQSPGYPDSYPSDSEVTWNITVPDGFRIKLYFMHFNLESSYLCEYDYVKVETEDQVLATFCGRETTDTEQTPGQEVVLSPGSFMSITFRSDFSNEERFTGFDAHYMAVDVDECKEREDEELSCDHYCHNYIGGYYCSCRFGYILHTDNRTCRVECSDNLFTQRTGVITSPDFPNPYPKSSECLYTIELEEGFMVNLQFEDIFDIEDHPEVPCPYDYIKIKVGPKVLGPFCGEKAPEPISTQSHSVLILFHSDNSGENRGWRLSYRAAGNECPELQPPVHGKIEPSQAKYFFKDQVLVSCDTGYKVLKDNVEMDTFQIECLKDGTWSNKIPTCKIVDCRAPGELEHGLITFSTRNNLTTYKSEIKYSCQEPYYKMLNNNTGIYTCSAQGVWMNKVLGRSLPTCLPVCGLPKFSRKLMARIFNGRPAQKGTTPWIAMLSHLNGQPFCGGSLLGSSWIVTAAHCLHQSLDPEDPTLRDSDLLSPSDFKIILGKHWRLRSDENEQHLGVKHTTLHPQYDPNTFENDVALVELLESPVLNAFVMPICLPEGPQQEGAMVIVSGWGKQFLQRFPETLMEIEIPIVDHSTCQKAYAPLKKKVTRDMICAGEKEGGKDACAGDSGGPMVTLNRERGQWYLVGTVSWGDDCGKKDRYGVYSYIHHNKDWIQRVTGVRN

[2] = target: MASP2 (UniProt O00187 16-686, limits assumed); experiment: cell-based or functional assay
MASP2, sequence (O00187 16-686 limits assumed): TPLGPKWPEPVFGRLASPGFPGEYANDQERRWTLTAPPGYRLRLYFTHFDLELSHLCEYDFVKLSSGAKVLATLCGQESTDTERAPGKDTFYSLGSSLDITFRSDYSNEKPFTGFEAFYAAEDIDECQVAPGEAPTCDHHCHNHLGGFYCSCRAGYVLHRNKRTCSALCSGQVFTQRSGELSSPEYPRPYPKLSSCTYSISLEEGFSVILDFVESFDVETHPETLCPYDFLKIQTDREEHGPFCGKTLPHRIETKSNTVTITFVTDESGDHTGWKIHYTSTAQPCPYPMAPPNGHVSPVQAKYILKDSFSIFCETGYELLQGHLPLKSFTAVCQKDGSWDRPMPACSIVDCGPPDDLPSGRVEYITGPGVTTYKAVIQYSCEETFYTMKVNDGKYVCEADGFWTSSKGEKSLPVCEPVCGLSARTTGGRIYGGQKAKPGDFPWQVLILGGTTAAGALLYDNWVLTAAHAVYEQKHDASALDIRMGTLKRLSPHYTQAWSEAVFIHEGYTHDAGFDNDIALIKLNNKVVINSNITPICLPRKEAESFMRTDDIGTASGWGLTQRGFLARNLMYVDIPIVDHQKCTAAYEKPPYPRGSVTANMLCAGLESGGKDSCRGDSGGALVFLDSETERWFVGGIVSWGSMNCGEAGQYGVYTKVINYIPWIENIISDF

[3] = target: T2, double-stranded C1r (UniProt P00736 18-705); experiment: cell-based or functional assay
T2 sequence (looked up): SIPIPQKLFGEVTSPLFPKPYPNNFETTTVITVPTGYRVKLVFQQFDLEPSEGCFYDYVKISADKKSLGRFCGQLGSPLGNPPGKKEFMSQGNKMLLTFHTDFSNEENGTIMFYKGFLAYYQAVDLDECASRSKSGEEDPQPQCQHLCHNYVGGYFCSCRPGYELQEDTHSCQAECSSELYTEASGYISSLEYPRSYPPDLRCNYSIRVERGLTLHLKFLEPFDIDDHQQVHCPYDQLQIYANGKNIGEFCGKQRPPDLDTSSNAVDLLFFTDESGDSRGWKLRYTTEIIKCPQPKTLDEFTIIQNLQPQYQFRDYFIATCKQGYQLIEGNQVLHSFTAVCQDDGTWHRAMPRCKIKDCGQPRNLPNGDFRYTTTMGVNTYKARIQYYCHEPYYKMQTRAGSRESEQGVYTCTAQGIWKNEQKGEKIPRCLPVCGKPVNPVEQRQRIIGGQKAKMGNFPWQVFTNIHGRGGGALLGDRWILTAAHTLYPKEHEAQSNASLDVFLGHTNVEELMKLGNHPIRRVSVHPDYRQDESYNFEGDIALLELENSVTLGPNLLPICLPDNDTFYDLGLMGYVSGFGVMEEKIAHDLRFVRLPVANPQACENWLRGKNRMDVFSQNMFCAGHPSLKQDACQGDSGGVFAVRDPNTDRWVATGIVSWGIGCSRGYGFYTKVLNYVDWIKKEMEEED

[4] = target: T3, C1r protein (UniProt P00736 18-705); experiment: indirect ELISA, antigen coated at 1 µg/ml, Goat anti-Human IgG-HRP detection, OD 450 nm
T3 construct: also called Cir protein
T3 sequence (looked up): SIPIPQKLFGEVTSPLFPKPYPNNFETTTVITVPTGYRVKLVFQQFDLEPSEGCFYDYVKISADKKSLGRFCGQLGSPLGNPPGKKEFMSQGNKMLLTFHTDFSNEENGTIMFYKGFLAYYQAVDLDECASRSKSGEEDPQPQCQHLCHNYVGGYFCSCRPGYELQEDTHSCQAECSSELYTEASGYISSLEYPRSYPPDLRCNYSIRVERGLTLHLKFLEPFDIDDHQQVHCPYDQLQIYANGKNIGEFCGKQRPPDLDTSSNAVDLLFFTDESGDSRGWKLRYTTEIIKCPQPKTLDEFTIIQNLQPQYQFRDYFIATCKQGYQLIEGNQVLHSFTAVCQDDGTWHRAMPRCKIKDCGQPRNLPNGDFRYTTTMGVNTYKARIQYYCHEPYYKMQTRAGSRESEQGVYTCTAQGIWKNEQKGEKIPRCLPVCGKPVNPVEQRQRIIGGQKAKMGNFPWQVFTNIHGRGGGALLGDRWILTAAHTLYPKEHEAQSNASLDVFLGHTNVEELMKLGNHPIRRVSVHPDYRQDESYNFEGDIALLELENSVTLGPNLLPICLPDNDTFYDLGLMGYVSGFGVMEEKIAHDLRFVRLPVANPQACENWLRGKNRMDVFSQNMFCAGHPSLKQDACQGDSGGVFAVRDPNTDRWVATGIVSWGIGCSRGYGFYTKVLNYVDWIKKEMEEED
Description: In this example, the antigen-binding specificity of the C1s recombinant antibody was analyzed by an indirect ELISA method according to the principle of the specificity detection of the C1s recombinant antibody shown in FIG. 4. An analysis method included the following steps:
200 μL (1 μg/ml) of C1s antigen (single-stranded unactivated C1s protein, double-stranded activated C1s protein, or C1r protein) was added respectively to wells of a microtiter plate, and the microtiter plate was gently shaken to make the antigen cover a well bottom of the microtiter plate. Incubation was performed overnight at 4° C. After washing the plate 3 times with a warm PBS, 200 μL of a blocking solution (10 mM PBS, 1% BSA, 0.1% casein) was added to perform blocking. Incubation was next performed at 37° C. for 1 h. The plate was washed 5 times with PBS. 100 μL of the C1s recombinant antibody was added in each well (an initial concentration of a first well was 10 μg/mL, then diluted down to 7 wells according to a ratio of ¼ gradient to set up duplicate wells), incubation was performed at 37° C. for 1 h. The liquid in the microtiter plate was spin-dried, and the plate was washed with 200 μL of warm PBS 5 times. 100 μL of a diluted secondary antibody (Goat anti-Human IgG-HRP) was added to each well of the microtiter plate. […] An optical density (OD) was read at 450 nm on the microplate reader.

Cross reaction rate (%) [1]: 0.04%
Measured concentration [1]: 1.82 pmol/min/µg and 2 µg/mL
Cross reaction rate (%) [2]: 0.04%
Measured concentration [2]: 1.64 pmol/min/µg and 1.8 µg/mL
Cross reaction rate (%) [3]: 0.15%
Measured concentration [3]: 0.91 pmol/min/µg and 1 µg/mL
binding result [4]: no binding
B1: C1s recombinant antibody (antibody, human IgG4 S228P, kappa, V domains shown)
VH: EVQLVESGGGLVKPGGSLRLSCAASGFTFSNYAMSWVRQAPGKGLEWVATISSGGSHTYYLDSVKGRFTISRDNSKNTLYLQMNSLRAEDTALYYCARLFTGYAMDYWGQGTLVTVSS
VL: QIVLTQSPATLSLSPGERATMSCTASSSVSSSYLHWYQQKPGKAPKLWIYSTSNLASGVPSRFSGSGSGTDYTLTISSLQPEDFATYYCHQYYRLPPITFGQGTKLEIKR
notes: The summary and claim 1 call the same entries variable regions; Expressed in HEK293T; also called C1s-specific recombinant antibody; recombinant anti-C1s antibody
